The values below are quoted from earlier work in PMC6802610.

The target in one data set is Rab1 (Homo sapiens) (UniProt P62820).
The target in the next data set is GDI (Homo sapiens) (UniProt P31150).
GDI (Homo sapiens), sequence (P31150 whole entry): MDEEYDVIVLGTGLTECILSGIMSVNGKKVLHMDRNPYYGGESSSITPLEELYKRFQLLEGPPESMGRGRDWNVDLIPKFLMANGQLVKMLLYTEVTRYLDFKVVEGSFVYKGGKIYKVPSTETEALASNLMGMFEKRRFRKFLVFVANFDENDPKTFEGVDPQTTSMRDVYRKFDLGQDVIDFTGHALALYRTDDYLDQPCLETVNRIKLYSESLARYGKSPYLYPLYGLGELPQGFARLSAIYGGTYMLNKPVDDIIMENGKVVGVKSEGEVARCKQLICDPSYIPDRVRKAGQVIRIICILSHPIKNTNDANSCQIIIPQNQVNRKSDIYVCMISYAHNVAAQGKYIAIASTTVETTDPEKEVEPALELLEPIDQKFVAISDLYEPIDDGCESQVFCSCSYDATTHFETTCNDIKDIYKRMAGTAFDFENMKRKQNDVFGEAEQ

Rab1, sequence (P62820 2-205): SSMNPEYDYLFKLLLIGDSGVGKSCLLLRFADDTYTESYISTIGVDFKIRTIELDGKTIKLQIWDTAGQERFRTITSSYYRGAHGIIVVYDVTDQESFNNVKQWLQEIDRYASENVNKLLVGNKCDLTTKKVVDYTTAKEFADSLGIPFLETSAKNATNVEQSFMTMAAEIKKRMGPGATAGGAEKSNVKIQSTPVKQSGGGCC
Rab1 (Homo sapiens), sequence (P62820 2-205): as above
SidM/DrrA, sequence (Q5ZSQ3 whole entry): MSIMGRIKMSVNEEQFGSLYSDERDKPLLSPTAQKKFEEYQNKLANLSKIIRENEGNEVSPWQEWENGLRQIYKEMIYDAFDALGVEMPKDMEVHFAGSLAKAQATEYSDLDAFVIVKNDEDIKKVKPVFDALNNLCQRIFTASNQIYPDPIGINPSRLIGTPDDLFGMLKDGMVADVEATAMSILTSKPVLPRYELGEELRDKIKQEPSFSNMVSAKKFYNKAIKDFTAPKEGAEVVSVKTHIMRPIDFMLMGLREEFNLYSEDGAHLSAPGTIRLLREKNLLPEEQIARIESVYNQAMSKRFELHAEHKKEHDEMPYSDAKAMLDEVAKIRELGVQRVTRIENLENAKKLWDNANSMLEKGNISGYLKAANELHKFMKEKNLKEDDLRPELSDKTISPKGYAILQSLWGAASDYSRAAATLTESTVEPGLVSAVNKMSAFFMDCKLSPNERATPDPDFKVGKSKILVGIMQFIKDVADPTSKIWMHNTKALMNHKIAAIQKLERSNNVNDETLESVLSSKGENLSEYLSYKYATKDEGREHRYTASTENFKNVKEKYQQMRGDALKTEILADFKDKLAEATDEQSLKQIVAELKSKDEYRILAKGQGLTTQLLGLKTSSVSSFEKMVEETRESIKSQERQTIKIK

Consider SidM/DrrA (from UniProt Q5ZSQ3), for which the Kd (in general, a measure of binding affinity in units of concentration) with Rab1 (Homo sapiens) was 84 nM.

With Rab1 (from UniProt P62820), the Kd with GDI (Homo sapiens) was 20 nM.
